This note sets out measurements from paper PMC6627233 (The EMBO Journal, 2019).

The target in this assay is Flag-tagged MAVS (UniProt Q7Z434 1-540). Kind of assay: far-Western, overlay or dot blot.
Flag-tagged MAVS, sequence (Q7Z434 whole entry): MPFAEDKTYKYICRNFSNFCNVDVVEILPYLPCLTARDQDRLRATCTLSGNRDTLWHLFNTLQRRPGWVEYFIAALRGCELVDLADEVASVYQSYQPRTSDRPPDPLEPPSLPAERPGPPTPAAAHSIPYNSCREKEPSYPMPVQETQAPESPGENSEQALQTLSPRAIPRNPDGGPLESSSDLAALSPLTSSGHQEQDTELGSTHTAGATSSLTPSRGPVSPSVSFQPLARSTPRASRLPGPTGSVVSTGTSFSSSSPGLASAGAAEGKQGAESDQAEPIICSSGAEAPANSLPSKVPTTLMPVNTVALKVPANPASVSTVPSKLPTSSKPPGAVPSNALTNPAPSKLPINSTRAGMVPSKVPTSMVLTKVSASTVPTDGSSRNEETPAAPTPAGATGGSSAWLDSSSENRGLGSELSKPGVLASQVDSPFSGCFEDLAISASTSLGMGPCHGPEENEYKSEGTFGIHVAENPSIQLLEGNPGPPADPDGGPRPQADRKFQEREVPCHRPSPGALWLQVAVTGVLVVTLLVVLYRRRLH

B1: GST-tagged RNF34 (natural protein)
chain: MKAGATSMWASCCGLLNEVMGTGAVRGQQSAFAGATGPFRFTPNPEFSTYPPAATEGPNIVCKACGLSFSVFRKKHVCCDCKKDFCSVCSVLQENLRRCSTCHLLQETAFQRPQLMRLKVKDLRQYLILRNIPIDTCREKEDLVDLVLCHHGLGSEDDMDTSSLNSSRSQTSSFFTRSFFSNYTAPSATMSSFQGELMDGDQTSRSGVPAQVQSEITSANTEDDDDDDDEDDDDEEENAEDRNPGLSKERVRASLSDLSSLDDVEGMSVRQLKEILARNFVNYSGCCEKWELVEKVNRLYKENEENQKSYGERLQLQDEEDDSLCRICMDAVIDCVLLECGHMVTCTKCGKRMSECPICRQYVVRAVHVFKS
With B1, the binding result is reported as “binds”.
